In patent US20220127350A1 (NUMAB THERAPEUTICS, published 2022):

Experiments:
human IL-17A [1] = target: T1, human IL-17A (human, UniProt Q16552 24-155); assay: competitive ELISA, blocking of IL-17A/IL-17RA interaction (summary table)
T1 construct: Recombinant human IL-17A (Peprotech Cat. No. 200-17), disulfide-linked homodimer from E. coli; Biotinylated or RPE-labelled in some assays; also called hIL-17A; IL-17A-RPE (labelled)
Protocol: (§1) Finally, Tetramethylbenzidine solution was added to develop the plate for 5 to 10 minutes and the reaction was stopped with 1 M HCl. The plate was read at 450 nm and 570 nm (reference wavelength).

human serum albumin [2] = target: T2, human serum albumin (human, UniProt P02768 25-609); assay: SPR (MASS-1), HSA immobilised, trispecific as analyte, pH 7.4
T2 construct: also called HSA
Protocol: (§2) The binding to human serum albumin (HSA) and cynomolgus serum albumin (CSA) was assessed for purified trispecific molecules by running SPR spectroscopy on a MASS-1 device (Sierra Sensors). HSA was directly immobilized on a high capacity amine sensor chip (Sierra Sensors) and trispecific molecules were injected as analyte using a dose response multicycle kinetic assay with concentrations of the analyte ranging from 0.35 to 90 nM diluted either in running buffer at pH5.5 or pH7.5. Obtained sensorgrams were fitted using the 1:1 binding model. Affinity to CSA was assessed in a similar approach using a CSA immobilized sensor chip.

human IL-17A [3] = target: T1, human IL-17A; assay: competitive ELISA: biotinylated human IL-17A preincubated with the trispecific molecule, then binding to coated IL-17RA detected (blocked ligand: IL-17RA) [right panel]
human serum albumin [4] = target: T2, human serum albumin; assay: SPR (MASS-1), HSA immobilised, trispecific as analyte, pH 5.5
Protocol: as §2

human IL-17A [5] = target: T1, human IL-17A; assay: competitive ELISA: IL-17RA coated, biotinylated IL-17A preincubated with trispecific molecule
Protocol: as §1

human serum albumin [6] = target: T2, human serum albumin; assay: SPR (MASS-1), trispecific immobilised, HSA injected as last analyte
Protocol: (§3) All possible sequences of antigen injection were tested resulting in six possible sequences.
(§4) To evaluate concomitant binding of each antigen to trispecific molecules, the binding level relative to the theoretical Rmax was calculated for each injection using the respective ligand and analyte molecular masses and the immobilization level of the trispecific molecules. The average of the maximum binding relative to theoretical Rmax for each antigen was obtained by averaging individual maximum binding relative to theoretical Rmax obtained for the two injections where the respective antigen was injected as first analyte (in the absence of other bound antigens). Next, the binding relative to the theoretical Rmax of each analyte injection was compared to its average maximum binding to calculate the fraction binding obtained in the presence of other bound antigens. […] The binding levels relative to the theoretical Rmax and the average of maximum binding (binding levels in the absence of other antigens) of each antigen were calculated.

human IL-17A [7] = target: T1, human IL-17A; assay: SPR (MASS-1), trispecific immobilised, antigens injected sequentially
Protocol: as §3, §4

human serum albumin [8] = target: T2, human serum albumin; assay: as above
Protocol: as §3, §4

human TNFα [9] = target: T3, human TNFα (human, UniProt P01375 77-233); assay: as above
T3 construct: Biotinylated in the Biacore assay
Protocol: as §3, §4

human IL-17A [10] = target: T1, human IL-17A; assay: SPR (Biacore T200), biotinylated antigen captured (Biotin-CAPture), trispecific as analyte;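 further: multicycle dose-response kinetics, analyte at 0.35–90 nM in running buffer, CAP chip regenerated with fresh antigen each cycle, sensorgrams fitted to a 1:1 binding model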
Protocol: (§5) In this experiment, the biotinylated antigens were captured using the Biotin-CAPture kit from Biacore. After each analyte injection cycle the CAP sensor chip was regenerated and new antigen was captured. Trispecific molecules were injected as analyte using a dose response multicycle kinetic assay with concentrations of the analyte ranging from 0.35 to 90 nM diluted in running buffer. Obtained sensorgrams were fitted using the 1:1 binding model.

human TNFα [11] = target: T3, human TNFα; assay: as above
Protocol: as §5

human serum albumin [12] = target: T2, human serum albumin; assay: SPR (summary table), affinity to HSA at pH 5.5
Protocol: as §2

human IL-17A [13] = target: T1, human IL-17A; assay: cell-based or functional assay
human TNFα [14] = target: T3, human TNFα; assay: cell-based or functional assay
human TNFα [15] = target: T3, human TNFα; assay: SPR (summary table), affinity to human TNF
Protocol: as §5

human TNFα [16] = target: T3, human TNFα; assay: cell-based or functional assay; remark: listed apart in the source
human IL-17A [17] = target: T1, human IL-17A; assay: SPR (summary table), affinity to human IL-17, capture setup
Protocol: as §5

rel. IC50 (IC50, secukinumab/IC50, test sample, ng/ml) (human IL-17A [1]): 10
Kd (human serum albumin [2]): 1.25 nM
koff (human serum albumin [2]): 0.000332 s⁻¹
kon (human serum albumin [2]): 266000 M⁻¹ s⁻¹
IC50 (read off the curve) (human IL-17A [3]): ~5 ng/mL
Kd (human serum albumin [4]): 0.77 nM
koff (human serum albumin [4]): 0.000365 s⁻¹
kon (human serum albumin [4]): 475000 M⁻¹ s⁻¹
rel. IC50 to secukinumab (IC50, secukinumab/IC50, test sample, ng/ml) (human IL-17A [5]): 10
relative binding level compared to average maximum binding (human serum albumin [6]): ~70%
antigen binding relative to average maximum binding (human IL-17A [7]): ≥ 70%
antigen binding relative to average maximum binding (human serum albumin [8]): ≥ 70%
antigen binding relative to average maximum binding (human TNFα [9]): ≥ 70%
Kd (human IL-17A [10]): 0.414 nM
koff (human IL-17A [10]): 8.96e-05 s⁻¹
kon (human IL-17A [10]): 216000 M⁻¹ s⁻¹
Kd (human TNFα [11]): 0.0237 nM
koff (human TNFα [11]): 2.66e-06 s⁻¹
kon (human TNFα [11]): 112000 M⁻¹ s⁻¹
Kd (human serum albumin [12]): 0.77 nM
rel. IC50 to secukinumab (ng/ml) in HT-29 assay, +HSA (human IL-17A [13]): 26.8
rel. IC50 to secukinumab (ng/ml) in HT-29 assay, -HSA (human IL-17A [13]): 30
rel. IC50 to A13 (nM) in HT-29 assay, +HSA (human TNFα [14]): 1
rel. IC50 to A13 (nM) in HT-29 assay, -HSA (human TNFα [14]): 0.6
Kd (human TNFα [15]): 0.0237 nM
rel. IC50 in L929 assay (IC50, A13/IC50, test sample, nM) (human TNFα [16]): 0.2
Kd (human IL-17A [17]): 0.414 nM
B1: A6 (trispecific scDb-scFv) (other)
chain: DIQMTQSPSSLSASVGDRVTITCQASQTINYWLAWYQQKPGKAPKLLIYRASTLASGVPSRFSGSGSGTDFTLTISSLQPEDFATYYCQNYYYSTSRSYGFGGGTKLTVLGGGGGSEVQLVESGGGLVQPGGSLRLSCAASGFSLSSNAMGWVRQAPGKGLEYIGIISVGGFTYYASWAKGRFTISRDNSKNTVYLQMNSLRAEDTATYFCARDRHGGDSSGAFYLWGQGTLVTVSSGGGGSGGGGSGGGGSGGGGSDIQMTQSPSSLSASVGDRVTITCQSSESVYSNNQLSWYQQKPGQPPKLLIYDASDLASGVPSRFSGSGSGTDFTLTISSLQPEDFATYYCAGGFSSSSDTAFGGGTKLTVLGGGGGSEVQLVESGGGLVQPGGSLRLSCAASGFSFSSDYWMCWVRQAPGKGLEWIGCIYAGDVDDTDYASWARGRFTISRDNSKNTVYLQMNSLRAEDTAVYYCARVDGFDITYFDLWGQGTLVTVSSGGGGSGGGGSDIQMTQSPSSLSASVGDRVTINCQASESISSWLAWYQQKPGKRPKLLIYKASTLASGVPSRFSGSGSGTDYTLTISSLQPEDFATYYCQGYYLDSSVDDNVFGGGTKLTVLGGGGGSGGGGSGGGGSGGGGSEVQLVESGGGLVQPGGSLRLSCAASGIDFSTYGISWVRQAPGKGLEWIAYIYPDYGITDYASWVNGRFTISLDNAQNTVYLQMNSLRAEDTAVYYCARSGSYYSRGWGAHYFNLWGQGTLVTVSS
notes: Single chain
IC50 in L929 assay, cell viability (human TNFα [16]): 0.06 nM
